Data as given in doi:10.1101/2021.06.06.447285 (bioRxiv, 2021).

Molecular target: the molecule itself
Assay: native gel or EMSA + other: dynamic light scattering + other: negative-stain TEM

B1: Encapsulin from Thermotoga maritima (natural protein)
chain: MEFLKRSFAPLTEKQWQEIDNRAREIFKTQLYGRKFVDVEGPYGWEYAAHPLGEVEVLSDENEVVKWGLRKSLPLIELRATFTLDLWELDNLERGKPNVDLSSLEETVRKVAEFEDEVIFRGCEKSGVKGLLSFEERKIECGSTPKDLLEAIVRALSIFSKDGIEGPYTLVINTDRWINFLKEEAGHYPLEKRVEECLRGGKIITTPRIEDALVVSERGGDFKLILGQDLSIGYEDREKDAVRLFITETFTFQVVNPEALILLKF
- binding result: binds
